Substrate in the data set “purified protein”: CC(=O)O
In words: purified protein. To be noted: CoA 2.0 mM, ATP 4.0 mM, MgCl2 1.0 mM + nucleotide, KCl 50 mM, Hepes pH 8.0, 25 C, apparent.

Substrate in data set [1]: CC(C)(COP(=O)(O)OP(=O)(O)OC[C@H]1O[C@@H](n2cnc3c(N)ncnc32)[C@H](O)[C@@H]1OP(=O)(O)O)[C@@H](O)C(=O)NCCC(=O)NCCS
In words: coupled NADH oxidation, progress curves. Format: biochemical, Saccharomyces cerevisiae. The note with it: acetate 2.0 mM, ATP 4.0 mM, MgCl2 1.0 mM + nucleotide, KCl 50 mM, Hepes pH 8.0, 25 C, apparent.

Substrate in data set [2]: C[C@@](O)(CCO)CC(=O)O
In words: PK/LDH-coupled NADH oxidation, progress curves. To be noted: ATP 5.0 mM, MgCl2 1.0 mM + nucleotide, KCl 50 mM, Hepes pH 8.0, 25 C, apparent. The format is biochemical, Staphylococcus aureus. The source says:
PK/LDH-coupled NADH oxidation, progress curves on MVK (mevalonate kinase)

For orientation: Km means the substrate concentration at which the rate is half of its maximum. A word on the kcat: it is the number of substrate molecules converted per active site and unit of time at saturation.

B1: ACS (acetyl-CoA synthetase) (Saccharomyces cerevisiae S288C) (protein)
chain: MSPSAVQSSKLEEQSSEIDKLKAKMSQSAATAQQKKEHEYEHLTSVKIVPQRPISDRLQPAIATHYSPHLDGLQDYQRLHKESIEDPAKFFGSKATQFLNWSKPFDKVFIPDPKTGRPSFQNNAWFLNGQLNACYNCVDRHALKTPNKKAIIFEGDEPGQGYSITYKELLEEVCQVAQVLTYSMGVRKGDTVAVYMPMVPEAIITLLAISRIGAIHSVVFAGFSSNSLRDRINDGDSKVVITTDESNRGGKVIETKRIVDDALRETPGVRHVLVYRKTNNPSVAFHAPRDLDWATEKKKYKTYYPCTPVDSEDPLFLLYTSGSTGAPKGVQHSTAGYLLGALLTMRYTFDTHQEDVFFTAGDIGWITGHTYVVYGPLLYGCATLVFEGTPAYPNYSRYWDIIDEHKVTQFYVAPTALRLLKRAGDSYIENHSLKSLRCLGSVGEPIAAEVWEWYSEKIGKNEIPIVDTYWQTESGSHLVTPLAGGVTPMKPGSASFPFFGIDAVVLDPNTGEELNTSHAEGVLAVKAAWPSFARTIWKNHDRYLDTYLNPYPGYYFTGDGAAKDKDGYIWILGRVDDVVNVSGHRLSTAEIEAAIIEDPIVAECAVVGFNDDLTGQAVAAFVVLKNKSSWSTATDDELQDIKKHLVFTVRKDIGPFAAPKLIILVDDLPKTRSGKIMRRILRKILAGESDQLGDVSTLSNPGIVRHLIDSVKL
With B1, in “purified protein”, the Km was 280 µM and the kcat stood at 10 s⁻¹. In data set [1], the Km was found to be 240 µM and the kcat was determined as 10 s⁻¹.

B2: MVK (mevalonate kinase) (Staphylococcus aureus) (protein)
chain: MTRKGYGESTGKIILIGEHAVTFGEPAIAVPFNAGKIKVLIEALESGNYSSIKSDVYDGMLYDAPDHLKSLVNRFVELNNITEPLAVTIQTNLPPSRGLGSSAAVAVAFVRASYDFLGKSLTKEELIEKANWAEQIAHGKPSGIDTQTIVSGKPVWFQKGQAETLKTLSLDGYMVVIDTGVKGSTRQAVEDVHKLCEDPQYMSHVKHIGKLVLRASDVIEHHNFEALADIFNECHADLKALTVSHDKIEQLMKIGKENGAIAGKLTGAGRGGSMLLLAKDLPTAKNIVKAVEKAGAAHTWIENLGG
notes: N-terminal His9-GST tag removed with PreScission protease; expressed in E. coli BL21(DE3)
As for B2, in data set [2], the Km amounted to 27 µM and the kcat is 19 s⁻¹.

Source of the values: paper PMC4143292, “An Enzymatic Platform for the Synthesis of Isoprenoid Precursors” (PLoS ONE, 2014).
